# Assay results published in the supplement of paper PMC9170038.
# Tested on: MS2 coat protein
# Test: apparent KD of MS2 coat protein; designed switch direction (-1 OFF switch, 1 ON switch): -1; higher = weaker reporter binding
# Method in brief: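 Three titration conditions were used: no input, 200 uM small-molecule ligand, and an oligonucleotide input. In each, SNAP-549-labelled MS2 coat protein was raised from 0.7 or 1.5 nM, doubling, to 3 µM over designed RNA switches transcribed on Illumina chips by stalled E. coli RNA polymerase. Curve fits of normalised cluster fluorescence gave values whose per-design median over clusters is the apparent KD.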
# [1] = input ligand: microRNA oligo, concentration not stated
# [2] = Eterna round: R95, input ligand: microRNA oligo, concentration not stated
# [3] = Eterna round: R95, input ligand: FMN 200 uM
# [4] = Eterna round: R95, input ligand: none
Sequence,apparent KD of MS2 coat protein [1] [nM],apparent KD of MS2 coat protein (input ligand: FMN 200 uM) [nM],apparent KD of MS2 coat protein (input ligand: none) [nM],apparent KD of MS2 coat protein [2] [nM],apparent KD of MS2 coat protein [3] [nM],apparent KD of MS2 coat protein [4] [nM]
"ACGCAUUGCCUUUGGUAGUGCGUAACAUGAGGAUCACCCAUGUAGGAUAUGGUAGGCUUUGCUUACCAGAAGGACAUUAUAAAC [Mat - Exclusion NG 3 - Mod of JL - D9] (Eterna round: R96, puzzle: Exclusion NG 3)",21.9,–,–,–,–,–
"ACGCAUUGCCUUUGGUAGUGCGUAACAUGAGGAUCACCCAUGUAGGAUAUGGUAGGCUUUGCUUACCAGAAGGACAUUGUUGAU [Omei mod of JL ENG3 1.03] (Eterna round: R96, puzzle: Exclusion NG 3)",107,220,130,–,–,–
"ACGCAUUGCCUUUGGUAGUGCGUUACAUGAGGAUCACCCAUGUAGGAUAUGGUAGGCAAAGCUUACCAGAAGGACAUGAUAAUU [Mat - Exclusion NG 3 - Mod of JL - D5] (Eterna round: R96, puzzle: Exclusion NG 3)",41.8,–,–,–,–,–
"ACGCGUGGCUAGGAUAUCGAGGAAUCUAGCCAGCGAGAAGGAGCCACAUGAGGAUCACCCAUGUGGUGAUCCUC [jl-ex6-4.65 ViennaUCT mod] (Eterna round: R97, puzzle: Exclusion 6)",–,6.76,3.8,–,–,–
"ACGGCGGCUCUAGGAUAUGACGACAUGAGGAUCACCCAUGUAGCCUUAGCCUUCACGAAAAUCGAUCAGAAGGAGAGCUCCAGG [Eternabot solution 19] (Eterna round: R96, puzzle: Exclusion NG 2)",10.9,13.5,17.6,–,–,–
ACGUGACAUGAGGAUCACCCAUGUGAGGAUAUCUGGAUAAUUUUUAUUUUAGAUAUCCAGAGAAGGCACAUGUU [Ex1-3: 1Z] (puzzle: Exclusion 1),–,–,–,188,–,–
"ACGUGAUAUCUGUCGGUGGACAUGAGGAUCACCCAUGUAAGCUUUUUGCUCAUCUUAUAACCCGGUGACAGACCUUC [Zaisbela] (puzzle: Sensor v3, turn-off variant 1)",–,–,–,413,26.8,29.5
ACGUUUUUUGAGGAUAUGCGACGUUUUUUCGUCGUAGAAGGCGAUACAUGAGGAUCACCCAUGUUUAUGGGCAU [LRO-Ex6-18] (puzzle: Exclusion 6),–,–,–,129,–,–
ACUAGAUGAGGAUAUGCAUGUUUUCGUGUUCUUCUAGAUUAACAUGAGGAUCACCCAUGUAGAAGGCGUCAUAU [Exclusion 2 - 29] (puzzle: Exclusion 2),–,–,–,45,–,–
"ACUAUACGAGGAUAUACUGACGGGCCUCAGGCAUCCAUCAGACAUGAGGAUCACCCAUGUAGAAGGCGUAUACU [JR_Exc002_Sub408] (Eterna round: R96, puzzle: Exclusion 2)",44.4,459,51.4,–,–,–
"ACUCAACAGUAGGAUAUCAUCAAACUAUUGUGAUGAGAAGGACUGACAUGAGGAUCACCCAUGUUAACGUGAUG [Mod of Brourd 2 - Jieux - Exclusion 6] (Eterna round: R97, puzzle: Exclusion 6)",–,32.1,21.5,–,–,–
"ACUCAACAUGAGGAUCACCCAUGUCAGGAUAUCUCUAUUUUGCGCGGGAGCAGAAUAGAGAGAAGGGACAACCU [Eternabot (Original) Solution 3] (Eterna round: R97, puzzle: Exclusion 1)",–,91.2,42.8,–,–,–
"ACUCGACAUGAGGAUCACCCAUGUGAGGAUAUGGCCUGUAUGGCGUGAGCUGGAUCAAUCAGAAGGCGCGUGGG [salish99_ex1_r4_052] (Eterna round: R97, puzzle: Exclusion 1)",–,80.4,56,–,–,–
"ACUGGUCGAGGAUAUACAAUCGUGCUUCGGCACGUAAGGUCACAUGAGGAUCACCCAUGUAGAAGGCGACCAGU [E2/2-A3] (Eterna round: R97, puzzle: Exclusion 2)",–,226,29.5,–,–,–
"ACUGGUCGAGGAUAUAUAUGACGUGCUUCGGCACGAAGAUCACAUGAGGAUCACCCAUGUAGAAGGCGACCAGU [E2/8-A2] (Eterna round: R97, puzzle: Exclusion 2)",–,731,130,–,–,–
"ACUUAUUGAGGAUAUACAUUAAUUUACAUGAGGAUCACCCAUGUUCUUCAAUGUAUAUAUGUAGAAGGCAGAAGAA [JL-ex5-4.30 Malcolm mod] (Eterna round: R97, puzzle: Exclusion 5)",–,29.3,14,–,–,–
"ACUUCACAUGAGGAUCACCCAUGUGAGGAUAUCGUCGAGGAUGUAAUGCCAUCCGUGACGAGAAGGCGCAUGGU [Exclusion 1 (Mod 2.1 solution 40 by Eternabot)] (Eterna round: R97, puzzle: Exclusion 1)",–,147,31.1,–,–,–

Sequence,apparent KD of MS2 coat protein [1] [nM],apparent KD of MS2 coat protein (input ligand: FMN 200 uM) [nM],apparent KD of MS2 coat protein (input ligand: none) [nM],apparent KD of MS2 coat protein [2] [nM],apparent KD of MS2 coat protein [3] [nM],apparent KD of MS2 coat protein [4] [nM]
"ACUUGUCAUGAGGAUAUGCGACGCAACGGUGGAGCAGAAGGCGUGACAUGAGGAUCACCCAUGUCAGUUCGCGA [eternacac ex6r4 sub32] (Eterna round: R97, puzzle: Exclusion 6)",–,43.4,16.1,–,–,–
"AGAAAUGCCCAUGGCCACAAGCUUUUUGCUUGUCUUACUACAUGAGGAUCACCCAUGUAACAUGGGCUCCUGACAAA [Soarriat] (puzzle: Sensor v3, turn-off variant 2)",–,–,–,9.12,12.9,10.9
AGAAGACAUGAGGAUCACCCAUGUAAGGAUAUCGAAGGUAAGAGAGGAAAGAAGGGAACGAGAAGGUACAGGUG [JR_Exclu1_Sub096] (puzzle: Exclusion 1),–,–,–,107,91.6,156
AGAAGACAUGAGGAUCACCCAUGUAAGGAUAUCGAAGGUAUGAGAGGAAAGAGGUUAACGAGAAGGUACAGGUG [JR_Exclu1_Sub098] (puzzle: Exclusion 1),–,–,–,74.1,85.9,130
AGAAGACAUGAGGAUCACCCAUGUAAGGAUAUCGGAGGUAAGGGAGGAAGGAGAUAGGCGAGAAGGUACAGGUG [JR_Exclu1_Sub093] (puzzle: Exclusion 1),–,–,–,53.1,39,51.7
AGACAGUGAGGAUAUGCAGUCGGUGUCACCUGAUGAGAAGAACAUGAGGAUCACCCAUGUAGAAGGCACAGGAA [Tearrice] (puzzle: Exclusion 2),–,–,–,40.6,–,–
"AGAGAAUACUCAGGAUAUCGGAAUAGAAAGAGACGAGAAGGGAGACAUGAGGAUCACCCAUGUGAAGUCUUGAGGCUGCAUGGA [Prohibition 26 - Jieux - Exclusion NG 1] (Eterna round: R96, puzzle: Exclusion NG 1)",122,197,165,–,–,–
"AGAGUGCUGCGAGGAUAUACAUGAGGAUCACCCAUGUGGAUCUGUGAGGCUUUGCCUCACAGGAUGUAGAAGGCGCAGUACUCA [Mat - Exclusion NG 2 - Mod of JL - D48] (Eterna round: R96, puzzle: Exclusion NG 2)",18.2,178,25.4,–,–,–
"AGAGUGCUGCGAGGAUAUACAUGAGGAUCACCCAUGUGGAUCUGUGAGGGAAAACCUCACAGGAUGUAGAAGGCGCAGUACUCA [Mat - Exclusion NG 2 - Mod of JL - D50] (Eterna round: R96, puzzle: Exclusion NG 2)",15.8,134,37.2,–,–,–
AGAGUGUGAGGAUAUAUGGUGAAGAUGAAGAAAGAGAAGGAGUAGAAGGUACAUGAGGAUCACCCAUGUUGAGG [JR_Exclu4_Sub071] (puzzle: Exclusion 4),–,–,–,47.8,44.8,45.5
"AGAUCACAUGAGGAUCACCCAUGUCAGGAUAUCUACAUUGAAGCUUCGGCUUCAAUGUAGAGAAGGGAUAAUUA [E1/4-B1] (Eterna round: R97, puzzle: Exclusion 1)",–,119,62.2,–,–,–
AGAUGGCGAGGAUAUACAUGAGGAUCACCCAUGUGAGAGAAUAAAGUGAGGAAGAAAAGUAGAAGGCGCUGUCA [Mat - Exclusion 3 - Mod of Salish D10] (puzzle: Exclusion 3),–,–,–,43.3,–,–
"AGAUGUAGAUACCGAUCCUACAUGAGGAUCACCCAUGUAGCAAGACGUGCACGCGAAGCUCGUCAGACUACCAGAAG [salish99_TOv1_r3_083] (puzzle: Sensor v3, turn-off variant 1)",–,–,–,99.7,114,137
"AGAUGUAGAUACCGAUCCUACAUGAGGAUCACCCAUGUAGCUAGACGUGCCCGCGUCGCUCGUCAGACUACCAGUAG [salish99_TOv1_r3_090] (puzzle: Sensor v3, turn-off variant 1)",–,–,–,248,252,269
"AGAUGUCCGCAGGAUAUGCGGGCGAGGCCCUAAGCAGAAGGGCGGACAUGAGGAUCACCCAUGUGAGUAAAAGA [EX6 A.23] (Eterna round: R97, puzzle: Exclusion 6)",–,94.2,25.2,–,–,–
"AGAUUAAAAGUAAGGAUAUGAUGCAGGAAACUGCGUCAGAAGGUACAUGAGGAUCACCCAUGUUAAACUAAUUU [Explosion 6 - Jieux - Brourd's mod of Exclusion 4] (Eterna round: R97, puzzle: Brourd's mod of Exclusion 4)",–,19.4,14.4,–,–,–
"AGAUUACAUGAGGAUCACCCAUGUCAGGAUAUCGACUGAACAGCUUCGGCUGUUCAGUCGAGAAGGGACAAUUA [Brourdxlusion 10 - Jieux - Exclusion 1] (Eterna round: R97, puzzle: Exclusion 1)",–,122,59.7,–,–,–
